Data: US20140235820A1, “METHODS AND COMPOSITIONS FOR MODULATING THE Wnt PATHWAY” (Genentech, Inc., priority 2010, published 2014)

T1: LRP6 E1 (Homo sapiens, UniProt O75581)
T1 construct: construct E1-amino acids A20-D325 of LPR6; made in house; host or cells: Tni insect cells (baculovirus, secreted)
T1 sequence (O75581 20-325): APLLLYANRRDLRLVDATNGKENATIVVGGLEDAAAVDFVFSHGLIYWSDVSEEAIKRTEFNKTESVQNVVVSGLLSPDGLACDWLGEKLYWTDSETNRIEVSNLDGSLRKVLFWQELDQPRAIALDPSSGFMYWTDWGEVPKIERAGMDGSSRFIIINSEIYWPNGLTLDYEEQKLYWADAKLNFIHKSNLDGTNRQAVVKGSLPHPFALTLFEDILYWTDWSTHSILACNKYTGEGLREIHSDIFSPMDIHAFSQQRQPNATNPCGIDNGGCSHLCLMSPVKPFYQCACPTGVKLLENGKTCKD

T2: LRP6 E2 (Homo sapiens, UniProt O75581)
T2 construct: construct E2-amino acids D235-E631 of LPR6; made in house; host or cells: Tni insect cells (baculovirus, secreted)
T2 sequence (O75581 325-631 limits assumed): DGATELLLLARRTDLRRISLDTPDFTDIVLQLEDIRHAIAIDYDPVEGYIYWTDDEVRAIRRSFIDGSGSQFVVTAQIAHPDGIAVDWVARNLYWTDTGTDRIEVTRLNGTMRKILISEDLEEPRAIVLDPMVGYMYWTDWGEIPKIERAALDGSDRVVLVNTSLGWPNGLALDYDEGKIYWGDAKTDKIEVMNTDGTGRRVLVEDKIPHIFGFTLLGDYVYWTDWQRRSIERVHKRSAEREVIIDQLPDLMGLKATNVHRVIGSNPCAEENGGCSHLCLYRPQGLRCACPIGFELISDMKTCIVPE

T3: LRP6 E4 (Homo sapiens, UniProt O75581)
T3 construct: construct E4-T933-Q1253; made in house; host or cells: Tni insect cells (baculovirus, secreted)
T3 sequence (O75581 933-1253): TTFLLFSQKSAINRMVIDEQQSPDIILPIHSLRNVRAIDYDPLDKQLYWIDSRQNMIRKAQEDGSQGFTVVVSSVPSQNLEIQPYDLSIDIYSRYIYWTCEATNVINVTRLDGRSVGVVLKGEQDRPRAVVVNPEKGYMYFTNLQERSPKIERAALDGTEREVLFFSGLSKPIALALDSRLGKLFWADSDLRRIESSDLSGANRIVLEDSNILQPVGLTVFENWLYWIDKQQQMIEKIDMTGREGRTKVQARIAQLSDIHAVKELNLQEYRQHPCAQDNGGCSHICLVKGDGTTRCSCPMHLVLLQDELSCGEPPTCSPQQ

T4: human LRP6 construct E1E2 (amino acids A20-E631) (human, UniProt O75581 20-631, biotinylated for biolayer interferometry)
T4 construct: range 20-631; also called LRP6 E1E2
T4 sequence (looked up): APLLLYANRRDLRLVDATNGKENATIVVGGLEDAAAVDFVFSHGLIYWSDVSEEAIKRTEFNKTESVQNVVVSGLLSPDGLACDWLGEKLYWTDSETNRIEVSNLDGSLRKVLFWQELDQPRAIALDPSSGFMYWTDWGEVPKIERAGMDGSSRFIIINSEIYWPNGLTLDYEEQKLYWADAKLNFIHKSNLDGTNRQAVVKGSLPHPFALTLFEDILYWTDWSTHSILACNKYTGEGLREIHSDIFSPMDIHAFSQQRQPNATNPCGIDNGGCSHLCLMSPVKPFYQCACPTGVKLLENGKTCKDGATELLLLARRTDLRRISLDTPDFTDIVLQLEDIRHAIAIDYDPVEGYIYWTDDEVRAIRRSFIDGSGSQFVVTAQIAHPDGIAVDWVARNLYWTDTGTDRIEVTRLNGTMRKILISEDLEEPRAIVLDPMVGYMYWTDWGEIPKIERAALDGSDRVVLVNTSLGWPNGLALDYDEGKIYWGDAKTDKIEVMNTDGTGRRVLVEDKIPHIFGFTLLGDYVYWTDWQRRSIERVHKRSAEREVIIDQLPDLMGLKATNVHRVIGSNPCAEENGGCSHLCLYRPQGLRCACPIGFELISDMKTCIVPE


Key:
LRP6 E1 = target: T1, LRP6 E1; assay: Biolayer interferometry binding to LRP6 E1
Procedure: (§1) Binding kinetics were measured by biolayer interferometry using an Octet Red instrument (ForteBio) as previously described (11). Streptavidin (SA) biosensors were loaded with biotinylated hLRP6 in 50 mMTris, pH 8, 300 mM NaCl, 5% (v/v) glycerol, and 0.05% (w/v) Triton X-100. The loaded biosensors were washed in the same buffer before carrying out association and dissociation measurements for the indicated times. The Kd of each interaction was determined using steady state-analysis through the Octet Red software v6.3. Each reported value represents an average of three or more experiments at different concentrations, with a fitted experimental curve for which the square of the correlation coefficient (R^2) is above 0.96.
(§2) The interaction of the different Dkks and sclerostin with various domains of LRP6 was measured using a biolayer interferometry assay (11). Purified receptors contained individual β-propeller-EGF-like units (E1, E2, or E4), two β-propellers (E1E2 or E3E4), or four β-propellers (E1E4))—as follows:
(§3) Human LRP6: construct E1E4-amino acids A20-Q1253 of LPR6; construct E1E2-amino acids A20-E631 of LPR6; construct E3E4 amino acids E631-Q1253 of LPR6; construct E1-amino acids A20-D325 of LPR6; construct E2-amino acids […]-E631 of LPR6; construct E4-T933-Q1253. The individual LRP6 β-propeller E3 could not be expressed.

LRP6 E2 = target: T2, LRP6 E2; assay: Biolayer interferometry binding to LRP6 E2
Procedure: as §1, §2, §3

LRP6 E4 = target: T3, LRP6 E4; assay: Biolayer interferometry binding to LRP6 E4
Procedure: as §1, §2, §3

[1] = target: T4, human LRP6 construct E1E2 (amino acids …); assay: BLI affinity
Procedure: as §1, with “(R²)” for “(R^2)”

[2] = target: T4, human LRP6 construct E1E2 (amino acids …); assay: BLI (FIG. 9B)
Procedure: as §1, with “(R²)” for “(R^2)”

Row | Molecule | binding to LRP6 E1 (in words) (LRP6 E1) | binding to LRP6 E2 (in words) (LRP6 E2) | binding to LRP6 E4 (in words) (LRP6 E4) | fold loss in affinity against wild-type Dkk1 [1] | binding result [2]
1 | Dkk1: Dickkopf 1 protein, Wnt pathway inhibitor, expressed in insect cells (NSNAIKN) | bind with high affinity | Partial binding | undetectable |  | 
2 | sclerostin: Sclerostin protein, Wnt pathway inhibitor, expressed in insect cells (LPNAIGR) | binds | very weak or non-specific binding |  |  | 
3 | Dkk1 Ile42Glu (ligand, human, UniProt O94907 32-266, looked up, also called Dkk1 I42E) TLNSVLNSNAEKNLPPPLGGAAGHPGSAVSAAPGILYPGGNKYQTIDNYQPYPCAEDEECGTDEYCASPTRGGDAGVQICLACRKRRKRCMRHAMCCPGNYCKNGICVSSDQNHFRGEIEETITESFGNDHSTLDGYSRRTTLSSKMYHTKGQEGSVCLRSSDCASGLCCARHFWSKICKPVLKEGQVCTKHRRKGSHGLEIFQRCYCGEGLSCRIQKDHHQASNSSRLHTCQRH |  |  |  | > 364 fold | 
4 | Dkk1 K211E (ligand, human, UniProt O94907 32-266, looked up, also called Dkk1 Lys211Glu) TLNSVLNSNAIKNLPPPLGGAAGHPGSAVSAAPGILYPGGNKYQTIDNYQPYPCAEDEECGTDEYCASPTRGGDAGVQICLACRKRRKRCMRHAMCCPGNYCKNGICVSSDQNHFRGEIEETITESFGNDHSTLDGYSRRTTLSSKMYHTKGQEGSVCLRSSDCASGLCCARHFWSKICEPVLKEGQVCTKHRRKGSHGLEIFQRCYCGEGLSCRIQKDHHQASNSSRLHTCQRH |  |  |  |  | binds
